The values that follow come from patent US20160297851A1, “BROAD SPECTRUM […]” (priority 2012, published 2016).

Experiment [1] addresses P84S variant of the truncated E. coli SPase (Δ2-75) (Escherichia coli) (UniProt P00803). In words: steady-state increase of arylomycin fluorescence (ex 320 nm, em 410 nm) on binding the soluble N-terminally truncated (delta 2-75) E. coli SPase P84S.
For experiment [2] the target is unchanged. In words: steady-state binding by increase of arylomycin fluorescence (ex 320 nm, em 410 nm); truncated SPase in n-octyl-β-glucopyranoside micelles.
Experiment [3] deals with full-length P29S mutant of S. aureus SPase (His6x-tagged SpsB(P29S)) (Staphylococcus aureus). As to the kind of experiment: steady-state increase of arylomycin fluorescence (ex 320 nm, em 410 nm) on binding full-length S. aureus SPase P29S.
Experiment [4] addresses full-length wild type S. aureus SPase (His6x-tagged SpsB) (Staphylococcus aureus). As to the kind of experiment: steady-state increase of arylomycin fluorescence (ex 320 nm, em 410 nm) on binding full-length wild type S. aureus SPase.
The target in experiment [5] is full-length P29S mutant of S. aureus SPase (His6x-tagged SpsB(P29S)) (Staphylococcus aureus). As to the kind of experiment: steady-state binding by increase of arylomycin fluorescence; full-length His-tagged S. aureus SPase, buffer with 10% glycerol.
For experiment [6], the target named is full-length wild type S. aureus SPase (His6x-tagged SpsB) (Staphylococcus aureus). The description is as above.

Regarding arylomycin C16 (peptide), the EC50 (read off the curve) in experiment [1] turned out to be 90 nM; in experiment [3], 200 nM; in experiment [4], 2000 nM. The dissociation constant Kd was 39 nM in experiment [2], 130 nM in experiment [5] and 1280 nM in experiment [6].
